We go through three substances from paper doi:10.1101/2022.03.21.485124.

Common to all, as to experiment: SEC
(In general: Size exclusion chromatography separates by hydrodynamic size, large species first.)

Assay [1] addresses human CD81 large extracellular loop domain, mutant D139N (human).
Assay [2] addresses human CD81 large extracellular loop domain, mutant E188Q (human).
The target in assay [3] is wild-type human CD81 large extracellular loop domain (wt-hCD81LEL) (human).

As usually defined, the stoichiometry N is a count of units in the complex or per binding partner. For “human CD81 large extracellular loop domain, mutant D139N (domain or fragment)”, the stoichiometry N in assay [1] was found to be 2.
In assay [2], “human CD81 large extracellular loop domain, mutant E188Q (domain or fragment)” showed a stoichiometry N of 2.
The substance “wild-type human CD81 large extracellular loop domain (wt-hCD81LEL) (domain or fragment)” returned a stoichiometry N in assay [3] of 2.
